Laboratory results from FireProtDB (doi:10.1002/pro.5560070509).

B1: NADP-dependent isopropanol dehydrogenase, P25984 (parent)
chain: MKGFAMLGINKLGWIEKERPVAGSYDAIVRPLAVSPCTSDIHTVFEGALGDRKNMILGHEAVGEVVEVGSEVKDFKPGDRVIVPCTTPDWRSLEVQAGFQQHSNGMLAGWKFSNFKDGVFGEYFHVNDADMNLAILPKDMPLENAVMITDMMTTGFHGAELADIQMGSSVVVIGIGAVGLMGIAGAKLRGAGRIIGVGSRPICVEAAKFYGATDILNYKNGHIVDQVMKLTNGKGVDRVIMAGGGSETLSQAVSMVKPGGIISNINYHGSGDALLIPRVEWGCGMAHKTIKGGLCPGGRLRAEMLRDMVVYNRVDLSKLVTHVYHGFDHIEEALLLMKDKPKDLIKAVVIL

Variants of: B1
Settings: Clostridium beijerinckii; pH 8.25; Thermal; DSC; Sodium phosphate 25 mM; NaCl 1 M; reversible: yes; structure 1KEV; whole UniProt chain shown

For S24P, the Tm was 69.9 °C and the “change of melting temperature, mutant - wild type (higher = more stable)” value (“change of melting temperature, mutant” below) was 3.9 °C.

With H222P the Tm was 59.5 °C and the “change of melting temperature, mutant” value was -6.5 °C.

With L316P the Tm was 76.8 °C and the “change of melting temperature, mutant” value was 10.8 °C.

With A177P the Tm was 66.5 °C and the “change of melting temperature, mutant” value was 0.5 °C.

In the case of A347P, the Tm is reported as 68.6 °C and the “change of melting temperature, mutant” value is reported as 2.6 °C.

For A22P, the Tm was 66.7 °C and the “change of melting temperature, mutant” value was 0.7 °C.

For T149P, the Tm was 65 °C and the “change of melting temperature, mutant” value was -1 °C.

In the case of L275P, the Tm is reported as 63.7 °C and the “change of melting temperature, mutant” value is reported as -2.3 °C.

In the case of S24P L316P, the Tm is reported as 77.1 °C and the “change of melting temperature, mutant” value is reported as 11.1 °C.
